The target in the assay is His-tagged human Rac1 recombinant protein (human, UniProt P63000 1-192). Description: MALDI MS, linear mode acquisition.

Turning to HRKKRRQRRRQFPGEYIPTVF [NipR2 (nitration inhibitory peptide for the Rho GTPases 2)], the binding result is given as “binds”.
In the case of HRKKRRQRRRQFPGEFIPTVF [NipR2F (phenylalanine-substituted control peptide)], the binding result is “binds”.
